The target of this assay is acetylcholine receptor (Homo sapiens, UniProt P02708). Description: SPR binding affinity (RU) of optimized 5mer/6mer/7mer peptides, Examples 6-7. The following applies: SPR, peptides tested at 10 μM. In a few lines:
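Synthetic 5mer and 6mer peptides, built from frequent or infrequent amino-acid combinations, were tested at 10 μM for binding to the human acetylcholine receptor by surface plasmon resonance. Binding is reported in response units (RU).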

Setting [1] is: 6mer-1 Top sequence (top combinations).

Chain of acetylcholine receptor (P02708 21-457): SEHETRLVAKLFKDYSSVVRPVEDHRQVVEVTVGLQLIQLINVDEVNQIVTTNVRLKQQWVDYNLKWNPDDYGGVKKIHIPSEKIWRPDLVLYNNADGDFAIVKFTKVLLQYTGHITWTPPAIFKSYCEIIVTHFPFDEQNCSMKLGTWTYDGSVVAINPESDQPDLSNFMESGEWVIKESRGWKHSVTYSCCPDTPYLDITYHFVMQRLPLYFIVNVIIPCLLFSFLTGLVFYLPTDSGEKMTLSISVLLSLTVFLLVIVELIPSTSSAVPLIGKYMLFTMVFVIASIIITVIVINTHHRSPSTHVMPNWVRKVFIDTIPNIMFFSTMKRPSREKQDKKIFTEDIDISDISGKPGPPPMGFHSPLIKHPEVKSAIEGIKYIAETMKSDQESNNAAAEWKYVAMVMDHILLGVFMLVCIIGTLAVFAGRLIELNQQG

For the substance 5mer-1123 (KYEKR), the Binding affinity (5mer Bottom sequence) was determined as 24 Ru.

As for 5mer-1124 (KKPVK), for the setting “5mer Bottom sequence”, the Binding affinity was 30 Ru.

On to 5mer-1125 (RYPFK), for which, where the note is “5mer Bottom sequence”, the Binding affinity is listed as 29 Ru.

For 5mer-1126 (KPTHK), for the setting “5mer Bottom sequence”, the Binding affinity is listed as 26 Ru.

As for 5mer-1127 (RIADR), the Binding affinity (5mer Bottom sequence) is on record as 16 Ru.

Consider 5mer-1128 (REWVR), for which the Binding affinity (5mer Bottom sequence) came to 26 Ru.

As for 5mer-1129 (KFDAR), the Binding affinity (5mer Bottom sequence) is listed as 14 Ru.

5mer-1130 (RFMVR): the Binding affinity (5mer Bottom sequence) came to 17 Ru.

5mer-1131 (KCDGK): the Binding affinity (5mer Bottom sequence) was 14 Ru.

Consider 5mer-1132 (KFSMK), for which the Binding affinity (5mer Bottom sequence) stood at 19 Ru.

For 5mer-1133 (KCSMK), the Binding affinity (5mer Bottom sequence) is 23 Ru.

Consider 5mer-1134 (RTCKR), for which the Binding affinity (5mer Bottom sequence) stood at 26 Ru.

5mer-1135 (RHTAR): the Binding affinity (5mer Bottom sequence) is reported as 17 Ru.

Consider 5mer-1136 (KNSAR), for which the Binding affinity (5mer Bottom sequence) is on record as 25 Ru.

On to 5mer-1137 (KEEEK), for which the Binding affinity (5mer Bottom sequence) is 22 Ru.

5mer-1138 (RENHK): the Binding affinity (5mer Bottom sequence) stood at 24 Ru.

Consider 5mer-1139 (KHCWK), for which, where the note is “5mer Bottom sequence”, the Binding affinity amounted to 28 Ru.

For 5mer-1140 (RNEFK), the Binding affinity (5mer Bottom sequence) was determined as 28 Ru.

In the case of 5mer-1141 (REEVR), under “5mer Bottom sequence”, the Binding affinity is 26 Ru.

In the case of 5mer-1142 (KTENK), the Binding affinity (5mer Bottom sequence) was found to be 24 Ru.

For the substance 5mer-1143 (RATGK), under “5mer Bottom sequence”, the Binding affinity is 19 Ru.

For 5mer-1144 (KAKNR), the Binding affinity (5mer Bottom sequence) amounted to 33 Ru.

On to 5mer-1145 (RMPAK), for which the Binding affinity (5mer Bottom sequence) is listed as 25 Ru.

Consider 5mer-1146 (KPHGR), for which the Binding affinity (5mer Bottom sequence) is recorded as 23 Ru.

For the substance 5mer-1147 (RDTGK), the Binding affinity (5mer Bottom sequence) is 16 Ru.

Take 5mer-1148 (RDWFR): the Binding affinity (5mer Bottom sequence) was found to be 24 Ru.

As to 5mer-1149 (KETDR), where the note is “5mer Bottom sequence”, the Binding affinity amounted to 25 Ru.

Take 5mer-1150 (KFTNR): the Binding affinity (5mer Bottom sequence) is given as 12 Ru.

For 5mer-1151 (KTNAR), the Binding affinity (5mer Bottom sequence) came out at 26 Ru.

Take 5mer-1152 (KENFK): for the setting “5mer Bottom sequence”, the Binding affinity was 18 Ru.

Consider 5mer-1153 (RDAPR), for which the Binding affinity (5mer Bottom sequence) was found to be 27 Ru.

As to 5mer-1154 (KCWVR), under “5mer Bottom sequence”, the Binding affinity came out at 12 Ru.

For 5mer-1155 (RYDMK), the Binding affinity (5mer Bottom sequence) is listed as 25 Ru.

On to 5mer-1156 (KKMNK), for which the Binding affinity (5mer Bottom sequence) was determined as 13 Ru.

Turning to 5mer-1157 (KTSHR), the Binding affinity (5mer Bottom sequence) was 21 Ru.

For 5mer-1158 (KYNPR), the Binding affinity (5mer Bottom sequence) amounted to 23 Ru.

For 5mer-1159 (KKWKK), the Binding affinity (5mer Bottom sequence) was 17 Ru.

Take 5mer-1160 (KETWR): the Binding affinity (5mer Bottom sequence) amounted to 14 Ru.

As to 5mer-1161 (KCHDR), the Binding affinity (5mer Bottom sequence) is given as 21 Ru.

As to 5mer-1162 (KIKKK), the Binding affinity (5mer Bottom sequence) came out at 15 Ru.

Take 5mer-1163 (KKSKR): under “5mer Bottom sequence”, the Binding affinity is given as 12 Ru.

5mer-1164 (RFPWR): where the note is “5mer Bottom sequence”, the Binding affinity was determined as 33 Ru.

For 5mer-1165 (RNMNR), under “5mer Bottom sequence”, the Binding affinity turned out to be 21 Ru.

Take 5mer-1166 (KTHEK): the Binding affinity (5mer Bottom sequence) was 32 Ru.

As to 5mer-1167 (KESWK), the Binding affinity (5mer Bottom sequence) is recorded as 12 Ru.

As for 5mer-1168 (RHHWR), the Binding affinity (5mer Bottom sequence) turned out to be 31 Ru.

Turning to 5mer-1169 (KDTPK), the Binding affinity (5mer Bottom sequence) amounted to 29 Ru.

Take 5mer-1170 (KHSEK): under “5mer Bottom sequence”, the Binding affinity was determined as 28 Ru.

As for 5mer-1171 (RCSWK), the Binding affinity (5mer Bottom sequence) turned out to be 21 Ru.

On to 5mer-1172 (KIWWR), for which the Binding affinity (5mer Bottom sequence) was found to be 25 Ru.

As for 5mer-1173 (KECKR), the Binding affinity (5mer Bottom sequence) is 30 Ru.

With 5mer-1174 (KYSGK), for the setting “5mer Bottom sequence”, the Binding affinity is recorded as 25 Ru.

With 5mer-1175 (RDMIR), where the note is “5mer Bottom sequence”, the Binding affinity is 30 Ru.

Consider 5mer-1176 (KIHFK), for which the Binding affinity (5mer Bottom sequence) stood at 25 Ru.

For the substance 5mer-1177 (KIPVR), where the note is “5mer Bottom sequence”, the Binding affinity turned out to be 20 Ru.

As for 5mer-1178 (RFDNR), the Binding affinity (5mer Bottom sequence) is on record as 22 Ru.

Turning to 5mer-1179 (RMNVR), the Binding affinity (5mer Bottom sequence) is reported as 18 Ru.

Regarding 5mer-1180 (KETAK), the Binding affinity (5mer Bottom sequence) is reported as 27 Ru.

For 5mer-1181 (KKAKR), for the setting “5mer Bottom sequence”, the Binding affinity is reported as 22 Ru.

Take 5mer-1182 (REKWK): where the note is “5mer Bottom sequence”, the Binding affinity is recorded as 15 Ru.

Regarding 5mer-1183 (RHAPK), the Binding affinity (5mer Bottom sequence) is on record as 13 Ru.

Take 5mer-1184 (RDSMK): the Binding affinity (5mer Bottom sequence) was 14 Ru.

Regarding 5mer-1185 (KPTGR), the Binding affinity (5mer Bottom sequence) was 30 Ru.

With 5mer-1186 (KMWVK), the Binding affinity (5mer Bottom sequence) was found to be 12 Ru.

With 5mer-1187 (KHHIR), the Binding affinity (5mer Bottom sequence) came out at 27 Ru.

Take 5mer-1188 (KPSGK): the Binding affinity (5mer Bottom sequence) amounted to 30 Ru.

With 5mer-1189 (RKMDK), the Binding affinity (5mer Bottom sequence) is reported as 11 Ru.

As for 5mer-1190 (RFSEK), the Binding affinity (5mer Bottom sequence) is given as 32 Ru.

Regarding 5mer-1191 (RMDWK), the Binding affinity (5mer Bottom sequence) is 30 Ru.

Take 5mer-1192 (RYAKK): the Binding affinity (5mer Bottom sequence) came to 28 Ru.

With 5mer-1193 (KHWFK), under “5mer Bottom sequence”, the Binding affinity was 22 Ru.

Turning to 5mer-1194 (RDNGK), the Binding affinity (5mer Bottom sequence) worked out at 18 Ru.

Regarding 5mer-1195 (RHWEK), for the setting “5mer Bottom sequence”, the Binding affinity was 19 Ru.

Regarding 5mer-1196 (RICIR), the Binding affinity (5mer Bottom sequence) was 24 Ru.

Take 5mer-1197 (KDDAR): for the setting “5mer Bottom sequence”, the Binding affinity worked out at 24 Ru.

For the substance 5mer-1198 (RAADK), under “5mer Bottom sequence”, the Binding affinity is reported as 25 Ru.

With 5mer-1199 (KNNNR), the Binding affinity (5mer Bottom sequence) is 29 Ru.

In the case of 5mer-1200 (RKNEK), the Binding affinity (5mer Bottom sequence) turned out to be 16 Ru.

Turning to 6mer-1-1 (KKVISK), the Binding affinity under setting [1] was 122 Ru.

Turning to 6mer-1-2 (RKQILR), the Binding affinity under setting [1] is 142 Ru.

On to 6mer-1-3 (RKRRSR), for which the Binding affinity under setting [1] is 154 Ru.

For 6mer-1-4 (RKSFYK), the Binding affinity under setting [1] is given as 139 Ru.

Consider 6mer-1-5 (KRQIRK), for which the Binding affinity under setting [1] worked out at 135 Ru.

On to 6mer-1-6 (RKSRCK), for which the Binding affinity under setting [1] was determined as 153 Ru.

For the substance 6mer-1-7 (KRQYSK), the Binding affinity under setting [1] is 126 Ru.

On to 6mer-1-8 (RKRRRK), for which, under setting [1], the Binding affinity worked out at 125 Ru.

Turning to 6mer-1-9 (RKSFCK), under setting [1], the Binding affinity is given as 154 Ru.

6mer-1-10 (KRWRLK): the Binding affinity under setting [1] is 139 Ru.

As for 6mer-1-11 (KRQFTK), under setting [1], the Binding affinity came out at 139 Ru.

For the substance 6mer-1-12 (KKQICK), the Binding affinity under setting [1] came out at 128 Ru.

Regarding 6mer-1-13 (KRQIQR), under setting [1], the Binding affinity is listed as 147 Ru.

Consider 6mer-1-14 (RKRFLK), for which the Binding affinity under setting [1] amounted to 145 Ru.

Take 6mer-1-15 (KRQICK): under setting [1], the Binding affinity came out at 123 Ru.

For the substance 6mer-1-16 (KKQYCR), the Binding affinity under setting [1] was determined as 136 Ru.

On to 6mer-1-17 (KRVQCR), for which the Binding affinity under setting [1] was 135 Ru.

Consider 6mer-1-18 (KKQFTR), for which, under setting [1], the Binding affinity amounted to 145 Ru.

On to 6mer-1-19 (KRSFYR), for which the Binding affinity under setting [1] was found to be 135 Ru.

As to 6mer-1-20 (KKSRYK), the Binding affinity under setting [1] turned out to be 147 Ru.

As for 6mer-1-21 (RKWYLK), the Binding affinity under setting [1] came to 137 Ru.

For 6mer-1-22 (RKRLCK), under setting [1], the Binding affinity is given as 126 Ru.

As for 6mer-1-23 (KRSVSR), the Binding affinity under setting [1] came to 153 Ru.

Turning to 6mer-1-24 (RKVIRK), the Binding affinity under setting [1] stood at 142 Ru.

Consider 6mer-1-25 (KKLIRR), for which the Binding affinity under setting [1] is on record as 135 Ru.

Turning to 6mer-1-26 (KKRVLR), under setting [1], the Binding affinity came out at 123 Ru.

On to 6mer-1-27 (KRSFTK), for which the Binding affinity under setting [1] was found to be 142 Ru.

6mer-1-28 (RRWISK): the Binding affinity under setting [1] came out at 125 Ru.

For 6mer-1-29 (KRLISR), the Binding affinity under setting [1] was 124 Ru.

On to 6mer-1-30 (RRQVRR), for which the Binding affinity under setting [1] is on record as 154 Ru.

With 6mer-1-31 (KRLYCR), the Binding affinity under setting [1] worked out at 121 Ru.

Regarding 6mer-1-32 (RKGQCR), under setting [1], the Binding affinity stood at 121 Ru.

As to 6mer-1-33 (KKSYCR), the Binding affinity under setting [1] amounted to 154 Ru.

Regarding 6mer-1-34 (RKWLYK), the Binding affinity under setting [1] was found to be 135 Ru.

Regarding 6mer-1-35 (RRGRQR), under setting [1], the Binding affinity is 136 Ru.

On to 6mer-1-36 (RKWQQK), for which the Binding affinity under setting [1] was determined as 124 Ru.

For the substance 6mer-1-37 (KKWVLR), under setting [1], the Binding affinity came to 121 Ru.

Regarding 6mer-1-38 (RRQQTK), the Binding affinity under setting [1] came out at 126 Ru.

For 6mer-1-39 (RKVYQK), under setting [1], the Binding affinity turned out to be 139 Ru.

In the case of 6mer-1-40 (KRSQYK), the Binding affinity under setting [1] is listed as 121 Ru.

Consider 6mer-1-41 (RKGITK), for which the Binding affinity under setting [1] came out at 122 Ru.

On to 6mer-1-42 (KKRIQR), for which the Binding affinity under setting [1] is given as 139 Ru.

For the substance 6mer-1-44 (KRQYCK), the Binding affinity under setting [1] is given as 148 Ru.

As to 6mer-1-45 (RKGLTK), the Binding affinity under setting [1] was found to be 145 Ru.

With 6mer-1-46 (KRLYQR), under setting [1], the Binding affinity is 142 Ru.

With 6mer-1-47 (KRRLLK), under setting [1], the Binding affinity turned out to be 149 Ru.

Consider 6mer-1-48 (RRWVRR), for which the Binding affinity under setting [1] was determined as 124 Ru.

For 6mer-1-49 (RRWQTR), the Binding affinity under setting [1] was found to be 149 Ru.

For the substance 6mer-1-50 (KKVRTR), the Binding affinity under setting [1] is reported as 139 Ru.

On to 6mer-1-51 (RRVLYK), for which the Binding affinity under setting [1] was found to be 127 Ru.

As to 6mer-1-52 (RRRFLR), the Binding affinity under setting [1] is recorded as 131 Ru.

As for 6mer-1-53 (KRVIQR), under setting [1], the Binding affinity is on record as 123 Ru.

With 6mer-1-54 (RRRVCK), the Binding affinity under setting [1] is reported as 144 Ru.

In the case of 6mer-1-55 (KRSIYR), under setting [1], the Binding affinity came out at 133 Ru.

Take 6mer-1-56 (RRGIQR): under setting [1], the Binding affinity turned out to be 137 Ru.

In the case of 6mer-1-57 (RKQYYK), under setting [1], the Binding affinity was determined as 139 Ru.

As for 6mer-1-58 (RKSVTR), under setting [1], the Binding affinity came out at 126 Ru.

As for 6mer-1-59 (KRLQCK), under setting [1], the Binding affinity turned out to be 145 Ru.

Regarding 6mer-1-60 (RKSIQK), the Binding affinity under setting [1] stood at 139 Ru.

These data come from patent US20250011363A1, “OPTIMIZED SHORTENED PEPTIDE THAT BINDS TO ACETYLCHOLINE RECEPTOR, AND USE THEREOF” (SKINMED CO., LTD., priority 2021, published 2025).
